Key:
[1] = biological target: T1, HDP (Heme Detoxification Protein; PF14_0446) (Plasmodium falciparum, UniProt Q8IL04); assay: isothermal titration calorimetry; type: binding
T1 construct: full length, 205 residues; E. coli BL21 inclusion bodies, N-lauryl sarkosine solubilised

[2] = biological target: the molecule itself; assay: immunoblot (band of dimer size); Western blot with anti-HDP antibodies on protein extract of trophozoite-infected RBCs; gel conditions not shown
[3] = biological target: the molecule itself; assay: immunoblot (band of dimer size); Western blot of transfected parasites with a monoclonal antibody against the c-myc tag; protein secreted into infected RBC cytosol

## C=CC1=C(C)C2=Cc3c(C=C)c(C)c4[n]3[Fe]([Cl])[n]3c(c(C)c(CCC(=O)O)c3=CC3=NC(=C4)C(C)=C3CCC(=O)O)=CC1=N2 [heme]
[1]
  Kd: 80 nM

B1: Heme Detoxification Protein (HDP), native, from P. falciparum-infected RBCs (natural protein, UniProt Q8IL04 1-205, looked up)
chain: MKNRFYYNLIIKRLYTRSGGLRKPQKVTNDPESINRKVYWCFEHKPVKRTIINLIYSHNELKIFSNLLNHPTVGSSLIHELSLDGPYTAFFPSNEAMQLINIESFNKLYNDENKLSEFVLNHVTKEYWLYRDLYGSSYQPWLMYNEKREAPEKLRNLLNNDLIVKIEGEFKHCNHSIYLNGSKIIRPNMKCHNGVVHIVDKPIIF
notes: Heme Detoxification Protein (HDP), Plasmodium falciparum, 205 amino acids; detected as intact HDP according to its predicted size; Called a dimer from bands on immunoblots and a silver-stained gel; also called native HDP; PfHDP; source: endogenous, extracts of P. falciparum trophozoite-infected RBCs and food vacuole preparation; also purified from the infected RBC extract by immunoprecipitation
[2]
  stoichiometry N: 2

B2: c-MycHDP (HDP with an amino-terminal c-Myc tag) (natural protein, P. falciparum, UniProt Q8IL04 1-205, looked up)
chain: B1 chain
notes: Heme Detoxification Protein (HDP), Plasmodium falciparum, 205 amino acids; the tag is described as attached to the end of the protein and found intact; also called pc-MycHDP; source: P. falciparum 3D7 parasites, transfected (episomal expression), secreted into infected RBC cytosol; not shown: c-Myc, N-terminal, kept
[3]
  stoichiometry N: 2

B3: HDPc-Myc (HDP with a carboxyl-terminal c-Myc tag) (natural protein, P. falciparum, UniProt Q8IL04 1-205, looked up)
chain: B1 chain
notes: Heme Detoxification Protein (HDP), Plasmodium falciparum, 205 amino acids; the tag is described as attached to the end of the protein and found intact; also called pHDPc-Myc; source: P. falciparum 3D7 parasites, transfected (episomal expression), secreted into infected RBC cytosol; not shown: c-Myc, C-terminal, kept
[3]
  stoichiometry N: 2

From paper PMC2291572, “HDP—A Novel Heme Detoxification Protein from the Malaria Parasite” (PLoS Pathogens, 2008)
